In PMC11751504:

What was measured:
[1] = biological target: SidF C-trim (residues 1-443) (Aspergillus fumigatus) (UniProt Q4WF55); experiment: SEC
[2] = biological target: SidF C-trim (residues 1-443) (Aspergillus fumigatus) (UniProt Q4WF55); experiment: SAXS

Substance: SidF C-trim (residues 1-443) (from UniProt Q4WF55 1-443) (domain or fragment)
- stoichiometry N [1]: 4
- stoichiometry N [2]: 2
